Measured values taken from US20230133381A1.

Biological target: human DR5 (human)
Assay: SPR (BIAcore X100), human DR5 on CM5 chip, IgG injected, 1:1 Langmuir model

| Kd [pM] | koff [s⁻¹] | kon [M⁻¹ s⁻¹] | Binder |
| --- | --- | --- | --- |
| 80.1 | 9.12e-05 | 1.13e+06 | DA35 (antibody, V domains shown) VH: AVTLDESGGGLQTPGGGLSLVCKGSGFTFSSFNMLWVRQAPGKGLEWVAGIGKSDRYTGYGSAVKGRATISRDDGQSTARLQMNSLRAEDTAVYYCVKDAGSGCGSGGWTGACIDTWGHGTEVIVSS VL: LTQPSSVSANLGGTVEITCSGGDSYAGSYYYGWYQQKAPGSAPVTVIYNNNNRPSNIPSRFSGSTSGSTATLTITGVQAEDEATYFCGSRDSSYVGIFGAGTTLTVL |
| 1.92 | 2.24e-06 | 1.17e+06 | DA27 (antibody, V domains shown) VH: AVTLDESGGGLQTPGGGLSLVCKGSGFTFSSFNMLWVRQAPGKGLEWVAGIGKSDRYTGYGSAVKGRATISRDDGQSTVRLQLNNLRAEDTGTYYCVKDAGSGCGSGGWTGACIDTWGHGTEVIVSS VL: LTQPSSVSANLGGTVEITCSGGDSYAGSYYYGWYQQKAPGSAPVTVIYNNNNRPSNIPSRFSGSTSGSTATLTITGVQAEDEATYFCGSRDSSYVGIFGAGTTLTVL |
| 1.62 | 1.71e-06 | 1.05e+06 | DA25 (antibody, V domains shown) VH: AVTLDESGGGLQTPGGGLSLVCKGSGFTFSSFNMLWVRQAPGKGLEWVAGIGKSDRYTGYGSAVKGRATISRDDGQSTVYLQMNSLRAEDTGTYYCVKDAGSGCGSGGWTGACIDTWGHGTEVIVSS VL: LTQPSSVSANLGGTVEITCSGGDSYAGSYYYGWYQQKAPGSAPVTVIYNNNNRPSNIPSRFSGSTSGSTATLTITGVQAEDEAVYFCGSRDSSYVGIFGAGTTLTVL |
| 94.2 | 9.5e-05 | 1e+06 | DA34 (antibody, V domains shown) VH: AVTLDESGGGLQTPGGGLSLVCKGSGFTFSSFNMLWVRQAPGKGLEWVAGIGKSDRYTGYGSAVKGRATISRDDGQSTAYLQMNSLRAEDTAVYYCVKDAGSGCGSGGWTGACIDTWGHGTEVIVSS VL: LTQPSSVSANLGGTVEITCSGGDSYAGSYYYGWYQQKAPGSAPVTVIYNNNNRPSNIPSRFSGSTSGSTATLTITGVQAEDEATYYCGSRDSSYVGIFGAGTTLTVL |
| 75.1 | 8.59e-05 | 1.14e+06 | DA32 (antibody, V domains shown) VH: AVTLDESGGGLQTPGGGLSLVCKGSGFTFSSFNMLWVRQAPGKGLEWVAGIGKSDRYTGYGSAVKGRATISRDDGQSTVRLQLNNLRAEDTAVYYCVKDAGSGCGSGGWTGACIDTWGHGTEVIVSS VL: LTQPSSVSANLGGTVEITCSGGDSYAGSYYYGWYQQKAPGSAPVTVIYNNNNRPSNIPSRFSGSTSGSTATLTITGVQAEDEAVYFCGSRDSSYVGIFGAGTTLTVL |
| 1.02 | 1.23e-06 | 1.2e+06 | DA24 (antibody, V domains shown) VH: AVTLDESGGGLQTPGGGLSLVCKGSGFTFSSFNMLWVRQAPGKGLEWVAGIGKSDRYTGYGSAVKGRATISRDDGQSTVRLQLNNLRAEDTGTYYCVKDAGSGCGSGGWTGACIDTWGHGTEVIVSS VL: LTQPSSVSANLGGTVEITCSGGDSYAGSYYYGWYQQKAPGSAPVTVIYNNNNRPSNIPSRFSGSTSGSTATLTITGVQAEDEATYYCGSRDSSYVGIFGAGTTLTVL |
|  | < 1e-05 | 4.9e+06 | DA3 (antibody, V domains shown) VH: EVQLVESGGGLVQPGGSLRLSCAASGFTFSSFNMLWVRQAPGKGLEWVAGIGKSDRYTGYGSAVKGRFTISRDTSKSTVYLQMNSLRAEDTAVYYCVRDAGSGCGSGGWTGACIDTWGQGTLVTVSS VL: DIQMTQSPSSLSASVGDRVTITCSGGDSYAGSYYYGWYQQKPGKAPKTLIYNNNNRPSGVPSRFSGSTSGTDFTLTISSLQPEDFATYYCGSRDSSYVGIFGQGTKVEIK |
| 26.1 | 5.53e-05 | 2.11e+06 | DA16 (antibody, V domains shown) VH: EVQLVESGGGLVQPGGSLRLSCAASGFTFSSFNMLWVRQAPGKGLEWVAGIGKSDRYTGYGSAVKGRFTISRDTSKNTAYLQMNSLRAEDTAVYYCSRDAGSGCGSGGWTGACIDTWGQGTLVTVSS VL: DIQMTQSPSSLSASVGDRVTITCSGGDSYAGSYYYGWYQQKPGKAPKTLIYNNNNRPSGVPSRFSGSRSGTDFTLTISSLQPEDFATYYCGSRDSSGAGGFGQGTKVEIK |
| 6.43 | 7.17e-06 | 1.11e+06 | DA21 (antibody, V domains shown) VH: EVQLVESGGGLVQPGGSLRLSCAASGFTFSSFNMLWVRQAPGKGLEWVAGIGKSDRYTGYGSAVKGRFTISRDDSKSTVYLQMNSLRAEDTAVYYCVRDAGSGCGSGGWTGACIDTWGQGTLVTVSS VL: DIQMTQSPSSLSASVGDRVTITCSGGDSYAGSYYYGWYQQKPGKAPKTLIYNNNNRPSGVPSRFSGSRSGTDFTLTISSLQPEDFATYYCGSRDSSGAGGFGQGTKVEIK |
| 1.9 | 2.9e-06 | 1.4e+06 | DA7 (antibody, V domains shown) VH: EVQLVESGGGLVQPGGSLRLSCAASGFTFSSFNMLWVRQAPGKGLEWVAGIGKSDRYTGYGSAVKGRFTISRDDSKSTVYLQMNSLRAEDTAVYYCSRDAGSGCGSGGWTGACIDTWGQGTLVTVSS VL: DIQMTQSPSSLSASVGDRVTITCSGGDSYAGSYYYGWYQQKPGKAPKTLIYNNNNRPSGVPSRFSGSTSGTDFTLTISSLQPEDFATYYCGSRDSSYVGIFGQGTKVEIK |
| 12 | 1.21e-05 | 1e+06 | DA20 (antibody, V domains shown) VH: EVQLVESGGGLVQPGGSLRLSCAASGFTFSSFNMLWVRQAPGKGLEWVAGIGKSDRYTGYGSAVKGRFTISRDDSKSTVYLQMNSLRAEDTAVYYCVRDAGSGCGSGGWTGACIDTWGQGTLVTVSS VL: DIQMTQSPSSLSASVGDRVTITCSGGDSYAGSYYYGWYQQKPGKAPKTLIYNNNNRPSGVPSRFSGSRSGTDFTLTISSLQPEDFATYYCGSRDSAGMGAFGQGTKVEIK |
| 12.7 | 2.99e-05 | 2.37e+06 | DA12 (antibody, V domains shown) VH: EVQLVESGGGLVQPGGSLRLSCAASGFTFSSFNMLWVRQAPGKGLEWVAGIGKSDRYTGYGSAVKGRFTISRDTSKNTAYLQMNSLRAEDTAVYYCSRDAGSGCGSGGWTGACIDTWGQGTLVTVSS VL: DIQMTQSPSSLSASVGDRVTITCSGGDSYAGSYYYGWYQQKPGKAPKTLIYNNNNLMPGVPSRFSGSRSGTDFTLTISSLQPEDFATYYCGSRDSSYVGIFGQGTKVEIK |
| < 5.3 |  | 1.9e+06 | DA2 (antibody, V domains shown) VH: EVQLVESGGGLVQPGGSLRLSCAASGFTFSSFNMLWVRQAPGKGLEWVAGIGKSDRYTGYGSAVKGRFTISRDDSKSTVYLQMNSLRAEDTAVYYCVRDAGSGCGSGGWTGACIDTWGQGTLVTVSS VL: DIQMTQSPSSLSASVGDRVTITCSGGDSYAGSYYYGWYQQKPGKAPKTLIYNNNNRPSGVPSRFSGSRSGTDFTLTISSLQPEDFATYYCGSRDSSYVGIFGQGTKVEIK |
| 0.53 | 4.2e-06 | 7.8e+06 | DA6 (antibody, V domains shown) VH: EVQLVESGGGLVQPGGSLRLSCAASGFTFSSFNMLWVRQAPGKGLEWVAGIGKSDRYTGYGSAVKGRFTISRDDSKSTVYLQMNSLRAEDTAVYYCARDAGSGCGSGGWTGACIDTWGQGTLVTVSS VL: DIQMTQSPSSLSASVGDRVTITCSGGDSYAGSYYYGWYQQKPGKAPKTLIYNNNNRPSGVPSRFSGSTSGTDFTLTISSLQPEDFATYYCGSRDSSYVGIFGQGTKVEIK |
| < 2 | < 1e-05 | 4.9e+06 | DA1 (antibody, V domains shown) VH: EVQLVESGGGLVQPGGSLRLSCAASGFTFSSFNMLWVRQAPGKGLEWVAGIGKSDRYTGYGSAVKGRFTISRDDSKSTVYLQMNSLRAEDTAVYYCVRDAGSGCGSGGWTGACIDTWGQGTLVTVSS VL: DIQMTQSPSSLSASVGDRVTITCSGGDSYAGSYYYGWYQQKPGKAPKTLIYNNNNRPSGVPSRFSGSTSGTDFTLTISSLQPEDFATYYCGSRDSSYVGIFGQGTKVEIK |
| 7 | 1.6e-05 | 2.3e+06 | DA10 (antibody, V domains shown) VH: EVQLVESGGGLVQPGGSLRLSCAASGFTFSSFNMLWVRQAPGKGLEWVAGIGKSDRYTGYGSAVKGRFTISRDTSKNTAYLQMNSLRAEDTAVYYCSRDAGSGCGSGGWTGACIDTWGQGTLVTVSS VL: DIQMTQSPSSLSASVGDRVTITCSGGDSYAGSYYYGWYQQKPGKAPKTLIYNNNNRPSGVPSRFSGSRSGTDFTLTISSLQPEDFATYYCGSRDSSYVGIFGQGTKVEIK |
| 23.5 | 0.0001 | 4.27e+06 | DA14 (antibody, V domains shown) VH: EVQLVESGGGLVQPGGSLRLSCAASGFTFSSFNMLWVRQAPGKGLEWVAGIGKSDRYTGYGSAVKGRFTISRDTSKNTAYLQMNSLRAEDTAVYYCSRDAGSGCGSGGWTGACIDTWGQGTLVTVSS VL: DIQMTQSPSSLSASVGDRVTITCSGGDSYAGSYYYGWYQQKPGKAPKTLIYNNNNKAKGVPSRFSGSRSGTDFTLTISSLQPEDFATYYCGSRDSSYVGIFGQGTKVEIK |
| 0.1 | 1.2e-07 | 1.2e+06 | DA4 (antibody, V domains shown) VH: EVQLVESGGGLVQPGGSLRLSCAASGFTFSSFNMLWVRQAPGKGLEWVAGIGKSDRYTGYGSAVKGRFTISRDDSKNTVYLQMNSLRAEDTAVYYCVRDAGSGCGSGGWTGACIDTWGQGTLVTVSS VL: DIQMTQSPSSLSASVGDRVTITCSGGDSYAGSYYYGWYQQKPGKAPKTLIYNNNNRPSGVPSRFSGSTSGTDFTLTISSLQPEDFATYYCGSRDSSYVGIFGQGTKVEIK |
| 11.2 | 2.94e-05 | 2.62e+06 | DA13 (antibody, V domains shown) VH: EVQLVESGGGLVQPGGSLRLSCAASGFTFSSFNMLWVRQAPGKGLEWVAGIGKSDRYTGYGSAVKGRFTISRDTSKNTAYLQMNSLRAEDTAVYYCSRDAGSGCGSGGWTGACIDTWGQGTLVTVSS VL: DIQMTQSPSSLSASVGDRVTITCSGGDSYAGSYYYGWYQQKPGKAPKTLIYNNNNRPSGVPSRFSGSRSGTDFTLTISSLQPEDFATYYCGSRDSAGMGAFGQGTKVEIK |
